Assay [1] addresses CD123 FC融合标签蛋白 (UniProt P26951). In words: indirect ELISA, CD123 protein coated at 1 μg/ml, B cell clone supernatant. For orientation: In an ELISA, binding on a coated surface is turned into a signal by an enzyme label.
In assay [2] the target is T1, CD123全长蛋白 (细胞膜上CD123) (UniProt P26951 19-378, limits assumed).
T1 construct: whole, on cells; also called 天然细胞表面CD123蛋白
In words: flow cytometry on Raji cells, antibody titration. (In general: In flow cytometry, cells or beads pass a laser one at a time.)

T1 sequence (P26951 19-378 limits assumed): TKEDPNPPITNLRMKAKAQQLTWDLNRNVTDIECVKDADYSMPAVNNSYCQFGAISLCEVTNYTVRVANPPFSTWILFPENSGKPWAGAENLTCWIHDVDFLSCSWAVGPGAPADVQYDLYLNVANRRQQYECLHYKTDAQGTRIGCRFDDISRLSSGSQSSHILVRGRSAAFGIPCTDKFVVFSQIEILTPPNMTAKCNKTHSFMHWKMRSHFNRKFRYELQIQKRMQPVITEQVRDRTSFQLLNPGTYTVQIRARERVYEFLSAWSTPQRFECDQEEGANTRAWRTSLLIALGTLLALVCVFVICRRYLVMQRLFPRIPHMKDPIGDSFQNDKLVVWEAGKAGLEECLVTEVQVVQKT

B1: 命名为1E4的兔重组单克隆抗体 (antibody, V domains shown)
VH: QSLEESGGRLVTPGTPLTLTCTASGFSLSSYYMSWVRQAPGKGLEYIGIIYDSGSTWYANWAKGRFTISKTSTAVYLEITSPTTEDTATYFCARTGSIYYIWLDLWGQGTLVTVSS
VL: AAVLTQTPSPVSAAVGGSVTISCQSSQTIYKNNDLAWYQQKPGQPPKLLIYEASKLASGVPSRFSGSGSGTQFTLTISGVQCDDAATYYCLGGYDDDDDNTFGGGTEVVVK
notes: In the later assays it was recombinant antibody purified from 293 cells
B1 gave an OD450 in assay [1] of 2.1 OD450. Moreover, the binding result in assay [2] was “binds”.

B2: 命名为1E5的兔重组单克隆抗体 (antibody, V domains shown)
VH: QSVKESAGGLFKPTDTLTLTCTASGFTISSNAITWVRQAPGNGLEWIGGIDSSGSAYYASWAKSRSTITRNTNLNTVTLKMTSLTAADTATYFCAGGSNIWGPGTLVTVSS
VL: DIVMTQTPSSVSAAVGGTVTIKCQASESIYSYLSWYQQKPGQPPKLLIYLASTLDSGVPSRFKGSGSGTQFTLTISDLECADAATYYCQSSYFSSGSSYGNTFGGGTEVVVK
In assay [1], B2 showed an OD450 of 1.87 OD450. Moreover, the binding result in assay [2] is on record as “binds”.

B3: 命名为5D3的兔重组单克隆抗体 (antibody, V domains shown)
VH: GGAEGGLVKPGGSLELCCKASGFSLSNLRVNWVRQAPGKGLEWIGCIISDSSGTTSYASWVNGRFTLSRDIDQNTGCLQLNSLTVADTAMYYCASRVNITSYDLSLWGQGTLVTVSS
VL: AAVLTQTPSPVSAAVGGTVSISCQSSKSVYNNKWLSWFQQKPGQPPKLLIYSASTLASGVPSRFSGSGSGTDFTLTISDVQCDDAATYYCAGGYSGSSDTYSFGGGTEVVVK
B3 yielded an OD450 in assay [1] of 1.77 OD450.

B4: 命名为1E6的兔重组单克隆抗体 (antibody, V domains shown)
VH: QSVEESGGRLVTPGTPLTLACTVSGFDISSYSMSWVRQAPGKGLEWIGSGIIGGSTYYASWAKGRFTISKTSTTVDLKITSPTTEDTATYFCARFAGTSSTDYYDLWGQGTLVTVSS
VL: TQTPSSVEAAVGGTVTIKCQASQSIDSYLAWYQQKPGQPPKLLIYDTSTLASGVSSRFKGSGSGTQFTLTISDLECADAATYYCQNYWIITTFGFGGGTEVVVK
The molecule B4 displayed an OD450 in assay [1] of 1.53 OD450.

These data come from patent CN115433279A (SUZHOU DIMA BIOTECHNOLOGY CO LTD, dated 2022).
